Laboratory results reported in PMC12158189, “Rigid DNA Frameworks Anchored Transistor Enabled Ultrasensitive Detection of Aβ-42 in Serum”.

B1: ss-DNA aptamer (Aβ-42 aptamer) (ssDNA)
DNA: AGTCTAGGATTCGGCGTGGGTTAATTTTTTGCTGCCTGTGGTGTTGGGGCGGGTGCG
modifications: 5' NH2-C6
B2: 17bp-5T TDN (tetrahedral DNA nanostructure with Aβ-42 aptamer) (structured_DNA)
DNA 1: AGTCTAGGATTCGGCGTGGGTTAATTTTTTGCTGCCTGTGGTGTTGGGGCGGGTGCGTTTTTACATTCCTAAGTCTGAAACATTACAGCTTGCTACACGAGAAGAGCCGCCATAGTA
DNA 2: TATCACCAGGCAGTTGACAGTGTAGCAAGCTGTAATAGATGCGAGGGTCCAATAC
DNA 3: TCAACTGCCTGGTGATAAAACGACACTACGTGGGAATCTACTATGGCGGCTCTTC
DNA 4: TTCAGACTTAGGAATGTGCTTCCCACGTAGTGTCGTTTGTATTGGACCCTCGCAT
modifications: 5' NH2-C6 on strands B17, C17, D17

Columns and labels:
[1] = target: T1, Aβ-42 (amyloid beta 1-42) (UniProt P05067 672-713); test: G-FET (VDirac shift, Hill fit); five orders of magnitude weaker than TDN; 12.5 mM Mg2+; SI captions say insulin; 1x PBS with 12.5 mM Mg2+, pH 7.0-7.4, room temperature; or full serum; probe immobilized on graphene FET; conditions: protein: commercial
[2] = target: T1, Aβ-42 (amyloid beta 1-42); test: G-FET (VDirac shift, Ids-t); full serum; 1x PBS with 12.5 mM Mg2+, pH 7.0-7.4, room temperature; or full serum; probe immobilized on graphene FET; conditions: protein: commercial; DNA tetrahedron of 4 strands, six 17 bp edges, pendant aptamer with 5T spacer
[3] = target: T1, Aβ-42 (amyloid beta 1-42); test: G-FET (VDirac shift, Hill fit); pseudo KD; 12.5 mM Mg2+; PBS; 1x PBS with 12.5 mM Mg2+, pH 7.0-7.4, room temperature; or full serum; probe immobilized on graphene FET; conditions: protein: commercial; DNA tetrahedron of 4 strands, six 17 bp edges, pendant aptamer with 5T spacer

T1 sequence (P05067 672-713): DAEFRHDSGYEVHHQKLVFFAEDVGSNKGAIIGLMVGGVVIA

Row | Binder | binding signal [1] | binding result [2] | binding result [3]
1 | B1 | ~100000 fold higher pseudo KD than TDN |  | 
2 | B2 |  | binds | binds
